According to patent US20180002415A1 (Chugai, published 2018):

T1: recombinant cynomolgus monkey C5 (cynomolgus monkey, UniProt P01031 20-1676 (human entry), limits assumed)
T1 construct: also called cynoC5
T1 chain: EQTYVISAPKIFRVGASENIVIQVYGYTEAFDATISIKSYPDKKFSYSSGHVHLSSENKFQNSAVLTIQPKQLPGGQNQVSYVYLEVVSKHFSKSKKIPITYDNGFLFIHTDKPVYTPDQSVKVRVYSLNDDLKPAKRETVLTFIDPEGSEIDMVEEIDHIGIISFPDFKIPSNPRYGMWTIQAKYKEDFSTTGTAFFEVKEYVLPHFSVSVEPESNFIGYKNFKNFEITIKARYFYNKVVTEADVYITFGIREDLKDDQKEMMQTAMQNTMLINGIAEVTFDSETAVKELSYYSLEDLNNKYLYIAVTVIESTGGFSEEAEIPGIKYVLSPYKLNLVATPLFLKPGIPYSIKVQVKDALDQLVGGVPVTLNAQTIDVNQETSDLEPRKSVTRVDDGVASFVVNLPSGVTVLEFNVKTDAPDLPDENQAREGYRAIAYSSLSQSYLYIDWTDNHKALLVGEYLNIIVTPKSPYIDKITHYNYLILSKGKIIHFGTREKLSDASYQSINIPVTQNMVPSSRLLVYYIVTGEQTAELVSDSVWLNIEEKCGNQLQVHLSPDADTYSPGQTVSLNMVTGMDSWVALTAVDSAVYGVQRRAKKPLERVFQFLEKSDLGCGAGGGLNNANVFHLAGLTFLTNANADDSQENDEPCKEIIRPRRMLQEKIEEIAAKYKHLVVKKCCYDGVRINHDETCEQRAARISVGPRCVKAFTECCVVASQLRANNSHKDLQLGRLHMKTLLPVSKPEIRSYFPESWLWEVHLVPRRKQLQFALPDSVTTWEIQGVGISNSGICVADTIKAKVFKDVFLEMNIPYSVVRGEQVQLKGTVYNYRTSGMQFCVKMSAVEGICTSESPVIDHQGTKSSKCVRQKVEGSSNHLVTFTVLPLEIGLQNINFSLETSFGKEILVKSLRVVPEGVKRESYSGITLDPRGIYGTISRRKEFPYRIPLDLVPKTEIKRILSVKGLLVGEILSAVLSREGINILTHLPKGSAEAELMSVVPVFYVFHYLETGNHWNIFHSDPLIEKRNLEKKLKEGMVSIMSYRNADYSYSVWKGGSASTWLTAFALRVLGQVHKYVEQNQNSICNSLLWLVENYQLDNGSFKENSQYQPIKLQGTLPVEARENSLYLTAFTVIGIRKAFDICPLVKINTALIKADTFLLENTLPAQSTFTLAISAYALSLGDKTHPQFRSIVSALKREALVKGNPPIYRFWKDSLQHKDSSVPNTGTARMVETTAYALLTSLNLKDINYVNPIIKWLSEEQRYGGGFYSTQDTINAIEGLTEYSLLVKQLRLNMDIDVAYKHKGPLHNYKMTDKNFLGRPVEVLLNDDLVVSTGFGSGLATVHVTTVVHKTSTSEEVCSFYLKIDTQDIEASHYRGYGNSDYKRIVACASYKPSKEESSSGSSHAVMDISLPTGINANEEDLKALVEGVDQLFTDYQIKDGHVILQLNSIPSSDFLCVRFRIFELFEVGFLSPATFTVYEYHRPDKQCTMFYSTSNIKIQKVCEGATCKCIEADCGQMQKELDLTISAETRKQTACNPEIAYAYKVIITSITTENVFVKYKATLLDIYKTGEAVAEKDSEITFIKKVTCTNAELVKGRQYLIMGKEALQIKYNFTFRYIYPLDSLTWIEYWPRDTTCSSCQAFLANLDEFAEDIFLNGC

T2: 321-500
T2 construct: Expressed in E. coli
T2 GST fusion polypeptide: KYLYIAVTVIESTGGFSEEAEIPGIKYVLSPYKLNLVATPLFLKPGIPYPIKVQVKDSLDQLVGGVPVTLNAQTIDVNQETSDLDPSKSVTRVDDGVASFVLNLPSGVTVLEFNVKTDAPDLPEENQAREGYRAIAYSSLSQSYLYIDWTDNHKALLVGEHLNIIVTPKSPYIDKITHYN

T3: 161-340
T3 construct: Expressed in E. coli
T3 GST fusion polypeptide: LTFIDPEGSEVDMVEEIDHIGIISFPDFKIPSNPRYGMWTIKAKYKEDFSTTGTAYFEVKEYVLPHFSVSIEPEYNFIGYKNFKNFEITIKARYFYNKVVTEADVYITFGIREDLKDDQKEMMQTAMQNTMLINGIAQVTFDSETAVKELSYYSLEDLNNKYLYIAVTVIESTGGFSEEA

T4: 481-660
T4 construct: Expressed in E. coli
T4 GST fusion polypeptide: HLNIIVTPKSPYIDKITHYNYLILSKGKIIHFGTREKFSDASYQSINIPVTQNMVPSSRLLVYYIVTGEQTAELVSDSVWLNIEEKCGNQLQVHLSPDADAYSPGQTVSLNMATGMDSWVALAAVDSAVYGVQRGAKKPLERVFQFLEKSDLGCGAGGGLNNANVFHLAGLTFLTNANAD


Experiments:
[1] = target: T5, C5 peptide 45-111 fused to GST-tag (human, UniProt P01031 45-111); experiment: summary drawing of the binding reactions to C5 beta-chain fragments
T5 construct: not shown: GST-tag (glutathione S-transferase); vector and linker not restated
T5 sequence (P01031 45-111): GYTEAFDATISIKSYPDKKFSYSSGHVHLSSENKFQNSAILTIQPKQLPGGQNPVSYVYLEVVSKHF

[2] = target: T6, C5 peptide 52-124 fused to GST-tag (human, UniProt P01031 52-124); experiment: as above
T6 construct: not shown: GST-tag (glutathione S-transferase); vector and linker not restated
T6 sequence (P01031 52-124): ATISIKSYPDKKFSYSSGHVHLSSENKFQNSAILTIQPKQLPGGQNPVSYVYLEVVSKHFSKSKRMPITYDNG

[3] = target: T7, C5 peptide 33-108 fused to GST-tag (human, UniProt P01031 33-108); experiment: as above
T7 construct: not shown: GST-tag (glutathione S-transferase); vector and linker not restated
T7 sequence (P01031 33-108): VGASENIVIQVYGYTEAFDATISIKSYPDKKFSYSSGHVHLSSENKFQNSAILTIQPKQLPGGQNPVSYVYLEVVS

[4] = target: T8, C5 peptide 45-124 fused to GST-tag (human, UniProt P01031 45-124); experiment: as above
T8 construct: not shown: GST-tag (glutathione S-transferase); vector and linker not restated
T8 sequence (P01031 45-124): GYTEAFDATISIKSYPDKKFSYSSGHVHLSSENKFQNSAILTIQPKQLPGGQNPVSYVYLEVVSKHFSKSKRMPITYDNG

[5] = target: T9, C5 peptide 33-111 fused to GST-tag (human, UniProt P01031 33-111); experiment: as above
T9 construct: not shown: GST-tag (glutathione S-transferase); vector and linker not restated
T9 sequence (P01031 33-111): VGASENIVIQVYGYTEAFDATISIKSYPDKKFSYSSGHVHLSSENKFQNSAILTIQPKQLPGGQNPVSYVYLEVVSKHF

[6] = target: T1, recombinant cynomolgus monkey C5; experiment: SPR (Biacore), pH 7.4; KD on cynoC5 against KD on hC5
Experimental: (§1) To observe the cross-reactivity of anti-C5 antibodies against human C5 (hC5) and cynomolgus monkey C5 (cynoC5), BIACORE® kinetics analysis was performed.

[7] = target: T1, recombinant cynomolgus monkey C5; experiment: SPR (Biacore), 37C, pH 7.4
Experimental: as §1

[8] = target: T1, recombinant cynomolgus monkey C5; experiment: SPR (Biacore), 37C, pH 7.4, Ab captured on ProA/G
Experimental: as §1

321-500 [9] = target: T2, 321-500; experiment: Western blot of E. coli lysates expressing GST-fused C5 beta-chain fragments
Experimental: (§2) Anti-C5 monoclonal antibodies (MAbs) were tested for binding to C5 β-chain-derived peptides in Western blot analysis. […] The E. coli samples were harvested after incubation with 1 mM Isopropyl β-D-1-thiogalactopyranoside (IPTG) for 5 hours at 37° C., and centrifuged at 20000×g for 1 min to obtain pellets.

161-340 [10] = target: T3, 161-340; experiment: as above
Experimental: as §2

481-660 [11] = target: T4, 481-660; experiment: as above
Experimental: as §2

[12] = target: T5, C5 peptide 45-111 fused to GST-tag; experiment: Western blot of E. coli lysates expressing GST-fused MG1-MG2-derived fragments; rhC5 (0.5 ug) as control lane
Experimental: (§3) The anti-C5 MAbs were tested for binding to MG1-MG2 domain-derived peptides in Western blot analysis. […] The E. coli samples were harvested after incubation with 1 mM IPTG for 5 hours at 37° C., and centrifuged at 20000×g for 1 minute to obtain pellets. The pellets were suspended with the sample buffer solution (2ME+), and used for Western blot analysis.

[13] = target: T6, C5 peptide 52-124 fused to GST-tag; experiment: as above
Experimental: as §3

[14] = target: T7, C5 peptide 33-108 fused to GST-tag; experiment: as above
Experimental: as §3

[15] = target: T8, C5 peptide 45-124 fused to GST-tag; experiment: as above
Experimental: as §3

[16] = target: T9, C5 peptide 33-111 fused to GST-tag; experiment: as above
Experimental: as §3

321-500 [17] = target: T2, 321-500; experiment: summary drawing of the binding reactions to C5 beta-chain fragments
161-340 [18] = target: T3, 161-340; experiment: as above
481-660 [19] = target: T4, 481-660; experiment: as above

Row | binding result [1] | binding result [2] | binding result [3] | binding result [4] | binding result [5] | fold weaker KD toward cynoC5 than toward hC5 [6] | fold weaker KD toward cynoC5 than toward hC5 [7] | Kd [8] | binding result (321-500 [9]) | binding result (161-340 [10]) | binding result (481-660 [11]) | binding result [12] | binding result [13] | binding result [14] | binding result [15] | binding result [16] | binding result (321-500 [17]) | binding result (161-340 [18]) | binding result (481-660 [19]) | Binder
1 | no binding | no binding | no binding | no binding | no binding | 8 times | 8 fold | 2.88 nM | no binding | no binding | no binding | – | – | – | – | – | – | – | – | CFA0672 (antibody, V domains shown, Chimeric, rabbit V regions; also called CFA0672-F760G4) VH: QSVEESGGRLVTPGTPLTLTCTASGFSLSGNAINWVRQAPGKGLEWIGCIYTGSDTTYYATWAKGRFTISKTSTTVDLKIASPTTEDTATYFCARGSGLWGPGTLVTVSS VL: DVVMTQTPASVSAPVGGTVTIKCQASQNIYSLLAWYQQKPGQPPKLLIYHTSDLASGVPSRFRGSGSGTEFTLTISDLECADAATYYCQCTAYGSSDVGGTFGGGTTVVVE
2 | – | – | – | – | – | – | – | 55.4 nM | no binding | no binding | no binding | no binding | no binding | no binding | no binding | no binding | – | – | – | CFA0305 (antibody, V domains shown, Chimeric, rabbit V regions; also called CFA0305-F760G4) VH: QSLEESGGDLVKPGASLAVTCTASGFSSSSSYYMCWVRQAPGKGLEWIGCIYTGSGATYYASWAKGRFTISKTSSTTVTLQMTSLTVADTATYFCASDGGYVTPTHAMYLWGPGTLVTVSS VL: DVVMTQTPASVSAAVGGTVTIKCQASQNIGSDLAWYQQKPGQPPRLLIYGASKLASGVSSRFSGSGSGKEFTLTISDLECADAVTYYCQCTFVGSSYGNAFGGGTEVVVK
3 | no binding | no binding | no binding | no binding | no binding | – | – | 17.9 nM | – | – | – | – | – | – | – | – | no binding | no binding | no binding | CFA0366 (antibody, V domains shown, Chimeric, rabbit V regions; also called CFA0366-F760G4) VH: QSLEESGGDLVKPGASLSLTCTAAGLDFSSSYYMCWVRQAPGKGLEWIACIYAGSSGIIYYANWAKGRFTISRPSSTTVTLQMTSLTAADTATYFCATYPTYGDGGHAFNLWGPGTLVTVSS VL: AQVLTQTPSSVSAAVGGTVTINCQSSQSVYSSDYLSWYQQKPGQPPKLLIYEASKLASGVPPRFSGSGSGTQFTLTISGVQCDDAATYYCQGTYYSSGWYFAFGGGTEVVVK
